PMC10397247
Read-outs that look alike come from different tables or passages of the source.

T1: 4H3001-AA
T1 chain: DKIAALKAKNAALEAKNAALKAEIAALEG

T2: 4H3015-AA
T2 chain: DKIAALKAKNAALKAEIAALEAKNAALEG

T3: 4H3073-AA
T3 chain: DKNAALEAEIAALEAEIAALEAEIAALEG

T4: 4H3340-AA
T4 chain: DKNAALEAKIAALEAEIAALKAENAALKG

T5: 4H3381-AA
T5 chain: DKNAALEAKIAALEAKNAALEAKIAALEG

T6: 4H3438-AA
T6 chain: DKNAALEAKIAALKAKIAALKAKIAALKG

T7: 4H347-AA
T7 chain: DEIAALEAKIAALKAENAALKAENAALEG

T8: 4H3493-AA
T8 chain: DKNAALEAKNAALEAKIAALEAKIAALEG

T9: 4H376-AA
T9 chain: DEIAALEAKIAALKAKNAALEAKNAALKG

T10: 4H406-AA
T10 chain: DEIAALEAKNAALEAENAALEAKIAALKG

T11: 4H452-AA
T11 chain: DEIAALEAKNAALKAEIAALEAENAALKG

T12: 4H56-AA
T12 chain: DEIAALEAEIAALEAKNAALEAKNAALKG

T13: 4H688-AA
T13 chain: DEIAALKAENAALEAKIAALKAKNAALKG

T14: 4H963-AA
T14 chain: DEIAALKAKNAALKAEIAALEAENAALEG

T15: 4H_APH
T15 chain: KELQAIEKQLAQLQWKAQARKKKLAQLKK

T16: 4H_BCR
T16 chain: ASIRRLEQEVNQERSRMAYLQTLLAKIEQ


Experiments:
Test in all cases: two-hybrid library CCmax;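 note: natural log of median RNA to DNA barcode read ratio; higher means stronger binding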
4H3001-AA = molecular target: T1, 4H3001-AA
4H3015-AA = molecular target: T2, 4H3015-AA; conditions: mean of both orientations
4H3073-AA = molecular target: T3, 4H3073-AA; conditions: mean of both orientations
4H3340-AA = molecular target: T4, 4H3340-AA
4H3381-AA = molecular target: T5, 4H3381-AA; conditions: mean of both orientations
4H3438-AA = molecular target: T6, 4H3438-AA; conditions: mean of both orientations
4H347-AA = molecular target: T7, 4H347-AA; conditions: mean of both orientations
4H3493-AA = molecular target: T8, 4H3493-AA; conditions: mean of both orientations
4H376-AA = molecular target: T9, 4H376-AA; conditions: mean of both orientations
4H406-AA = molecular target: T10, 4H406-AA; conditions: mean of both orientations
4H452-AA = molecular target: T11, 4H452-AA; conditions: mean of both orientations
4H56-AA = molecular target: T12, 4H56-AA; conditions: mean of both orientations
4H688-AA = molecular target: T13, 4H688-AA
4H963-AA = molecular target: T14, 4H963-AA; conditions: mean of both orientations
4H_APH = molecular target: T15, 4H_APH
4H_BCR = molecular target: T16, 4H_BCR; conditions: mean of both orientations
4H_GCN4 = conditions: mean of both orientations
GCN2_T = molecular target: GCN2_T

4H_GCN4, sequence (chain, as listed by the source): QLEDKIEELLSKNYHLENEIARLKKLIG

interaction score (4H3001-AA) | interaction score (4H3015-AA) | interaction score (4H3073-AA) | interaction score (4H3340-AA; mean of both orientations) | interaction score (4H3381-AA) | interaction score (4H3438-AA) | interaction score (4H347-AA) | interaction score (4H3493-AA) | interaction score (4H376-AA) | interaction score (4H406-AA) | interaction score (4H452-AA) | interaction score (4H56-AA) | interaction score (4H688-AA; mean of both orientations) | interaction score (4H963-AA) | interaction score (4H_APH) | interaction score (4H_BCR) | interaction score (4H_GCN4) | interaction score (GCN2_T) | interaction score (4H3340-AA) | interaction score (4H688-AA) | Binder
-1.82 | -1.86 | -0.938 | -1.44 | -1.43 | -1.83 | -2.08 | -1.38 | -1.69 | 2.27 | -1.76 | -1.87 | -1.46 | -1.94 | -2 | -2.15 | -2.43 | -1.9 |  |  | DKIAALKAKNAALEAKNAALKAEIAALEG [4H3001-AA]
 |  |  |  | -1.57 |  | -0.858 | -1.48 | -1.48 | -1.43 |  |  |  | -2.28 |  |  |  |  | 1.7 | -1.69 | DKNAALEAKIAALEAEIAALKAENAALKG [4H3340-AA]
